Test results published in the Human Domainome abundance scans (Beltran et al. 2025).
± gives the uncertainty stated by the source.

B1: Tumor protein 63, residues 545 to 610; numbered along this chain, Q9H3D4 (parent)
chain: TDCSIVSFLARLGCSSCLDYFTTQGLTTIYQIEHYSMDDLASLKIPEQFRHAIWKGILDHRQLHEF

Variants of: B1
Experiment: abundance fitness (aPCA) (normalised: wild type 0, dead -1); higher = more abundant; growth selection in yeast, the domain comes from the species named
Details: Homo sapiens

Abundance fitness: each site, then its substitutions
E33: P -0.772 ± 0.082, L -0.06 ± 0.027, C -0.05 ± 0.036, F -0.06 ± 0.045, T -0.047 ± 0.045, D -0.026 ± 0.068, Q 0.013 ± 0.049, S -0.052 ± 0.036, H -0.039 ± 0.044, N -0.117 ± 0.041, I -0.139 ± 0.069, A -0.042 ± 0.029, K -0.112 ± 0.039, Y -0.098 ± 0.064, W -0.046 ± 0.03, G -0.074 ± 0.019
I45: S -1.04 ± 0.057, H -0.925 ± 0.2, D -0.982 ± 0.093, L -0.034 ± 0.021, C -0.283 ± 0.037, T -0.588 ± 0.041, P -0.865 ± 0.086, M -0.143 ± 0.031, K -0.72 ± 0.078, Q -0.965 ± 0.15, G -0.913 ± 0.065, V -0.021 ± 0.023, R -1.02 ± 0.067, F -0.358 ± 0.036, Y -0.821 ± 0.09, E -0.676 ± 0.06, A -0.721 ± 0.043, W -0.967 ± 0.062
I29: M 0.042 ± 0.047, S -0.245 ± 0.024, P -0.309 ± 0.04, Y -0.049 ± 0.063, E -0.366 ± 0.036, R -0.285 ± 0.023, V -0.019 ± 0.023, A -0.175 ± 0.042, N -0.719 ± 0.051, L -0.027 ± 0.025, K -0.366 ± 0.036, H -0.432 ± 0.066, W -0.052 ± 0.028, G -0.701 ± 0.035, Q -0.355 ± 0.04, T -0.046 ± 0.024, D -0.42 ± 0.053, F 0.063 ± 0.035
I32: R -1.01 ± 0.06, W -0.898 ± 0.051, A -0.672 ± 0.035, N -0.841 ± 0.1, E -0.925 ± 0.11, T -0.55 ± 0.044, F -0.209 ± 0.068, M -0.169 ± 0.032, Q -0.931 ± 0.095, C -0.249 ± 0.046, H -0.876 ± 0.24, K -0.9 ± 0.14, S -1.01 ± 0.088, G -0.832 ± 0.037, L -0.062 ± 0.026, P -0.953 ± 0.1
S36: I -0.188 ± 0.04, Y -0.311 ± 0.068, T -0.023 ± 0.044, W -0.436 ± 0.05, H -0.13 ± 0.092, R -0.071 ± 0.024, F -0.379 ± 0.04, L -0.177 ± 0.027, N 0.009 ± 0.055, G -0.028 ± 0.018, A -0.062 ± 0.025, E -0.014 ± 0.036, M -0.096 ± 0.05, Q -0.049 ± 0.044, V -0.09 ± 0.025, P -0.608 ± 0.057
T28: Y -0.056 ± 0.029, W -0.04 ± 0.03, P -0.82 ± 0.055, G -0.069 ± 0.024, M -0.038 ± 0.033, K -0.028 ± 0.033, V -0.1 ± 0.023, F -0.063 ± 0.038, I -0.192 ± 0.027, L -0.084 ± 0.019, N -0.087 ± 0.04, D -0.021 ± 0.036, R -0.051 ± 0.021, H -0.056 ± 0.042, A -0.065 ± 0.027, C -0.211 ± 0.028, Q -0.012 ± 0.029
L40: F -0.043 ± 0.048, D -0.897 ± 0.096, M -0.134 ± 0.041, C -0.509 ± 0.066, T -0.933 ± 0.078, Y -0.277 ± 0.041, N -0.888 ± 0.13, Q -0.909 ± 0.08, K -1.02 ± 0.3, V -0.122 ± 0.02, R -1.01 ± 0.067, S -0.701 ± 0.038, I -0.037 ± 0.04, E -1.03 ± 0.11, A -0.967 ± 0.06, P -0.893 ± 0.062, G -0.993 ± 0.041, W -0.764 ± 0.047
Y30: R 0.008 ± 0.024, T -0.001 ± 0.034, S 0.038 ± 0.03, Q 0.029 ± 0.041, G 0 ± 0.027, H 0.057 ± 0.044, N -0.046 ± 0.068, D 0.009 ± 0.044, F -0.112 ± 0.086, C 0.005 ± 0.075, I -0.049 ± 0.043, K 0.001 ± 0.019, P 0.007 ± 0.034, M -0.025 ± 0.043, V -0.034 ± 0.025, E -0.016 ± 0.031, W -0.06 ± 0.044, L -0.044 ± 0.02
D39: L -0.238 ± 0.025, Q -0.032 ± 0.044, F -0.478 ± 0.037, A -0.108 ± 0.03, K -0.093 ± 0.031, W -0.554 ± 0.03, E -0.047 ± 0.048, R -0.171 ± 0.02, T -0.124 ± 0.036, H -0.163 ± 0.049, S -0.143 ± 0.029, P -0.864 ± 0.081, I -0.449 ± 0.07, V -0.265 ± 0.032, Y -0.437 ± 0.042
D38: R -0.03 ± 0.022, L -0.039 ± 0.034, Q -0.026 ± 0.045, A -0.01 ± 0.031, T -0.033 ± 0.03, K -0.035 ± 0.13, M 0.048 ± 0.26, C -0.082 ± 0.06, P -0.105 ± 0.051, I -0.077 ± 0.031, S -0.029 ± 0.042, Y -0.055 ± 0.086, G -0.021 ± 0.034, E 0.004 ± 0.051, V 0.01 ± 0.032
